Ends that are not written are not given here. * marks the point of attachment. 5FAM = O=C1OC2(c3ccc(O)cc3Oc3cc(O)ccc32)c2ccc(C(=O)*)cc21
B3: myosin VI^998–1131 of the long isoform (myosin VI_(long)), cleaved from GST and purified (domain or fragment, human, UniProt Q9UM54 998-1131, looked up)
chain: QQQAVLEQERRDRELALRIAQSEAELISDEAQADLALRRSLDSYPVSKNDGTRPKMTPEQMAKEMSEFLSRGPAVLATKAAAGTKKYDLSKWKYAELRDTINTSCDIELLAACREEFHRRLKVYHAWKSKNKKR
notes: source: E. coli Rosetta (DE3), GST fusion cleaved with PreScission Protease, purified (ion exchange)
B5: CLCa full length, bacterially produced (ITC; reconstitution of cages) (natural protein, human, UniProt P09496 1-248, looked up)
chain: MAELDPFGAPAGAPGGPALGNGVAGAGEEDPAAAFLAQQESEIAGIENDEAFAILDGGAPGPQPHGEPPGGPDAVDGVMNGEYYQESNGPTDSYAAISQVDRLQSEPESIRKWREEQMERLEALDANSRKQEAEWKEKAIKELEEWYARQDEQLQKTKANNRVADEAFYKQPFADVIGYVTNINHPCYSLEQAAEEAFVNDIDESSPGTEWERVARLCDFNPKSSKQAKDVSRMRSVLISLKQAPLVH
notes: clathrin light chain A (CLCa), human; Cleavage from GST is told for the cage reconstitution; also called CLCa FL; CLCa WT; source: bacterially produced and cleaved from GST, purified
B6: myosin VI^1050–1131 of the long isoform, cleaved from GST and purified (domain or fragment, human, UniProt Q9UM54 1050-1131, looked up)
chain: RPKMTPEQMAKEMSEFLSRGPAVLATKAAAGTKKYDLSKWKYAELRDTINTSCDIELLAACREEFHRRLKVYHAWKSKNKKR
notes: 15N- or 13C,15N-labelled in some NMR samples; also called Myo6; source: E. coli Rosetta (DE3) or BL21 (DE3), GST fusion cleaved with PreScission Protease, purified (ion exchange or SEC)

Experiments:
[1] = target: 5-carboxyfluorescein (5-FAM)-conjugated CLCa peptide 46–61 (human) (UniProt P09496); experiment: fluorescence polarisation; 20–50 nM 5-FAM-conjugated CLCa peptide titrated with purified myosin VI fragment from ~150 µM, 22 °C, 384-well plate
[2] = target: myosin VI^1050–1131 of the long isoform, cleaved from GST and purified (UniProt Q9UM54); experiment: GST pull-down, Coomassie, band quantitation; details: parent: est. 23; read off a plot
Chain of myosin VI^1050–1131 of the long isoform, cleaved from GST and purified (UniProt Q9UM54) (Q9UM54 whole entry, looked up, the tested form may be a part, canonical isoform): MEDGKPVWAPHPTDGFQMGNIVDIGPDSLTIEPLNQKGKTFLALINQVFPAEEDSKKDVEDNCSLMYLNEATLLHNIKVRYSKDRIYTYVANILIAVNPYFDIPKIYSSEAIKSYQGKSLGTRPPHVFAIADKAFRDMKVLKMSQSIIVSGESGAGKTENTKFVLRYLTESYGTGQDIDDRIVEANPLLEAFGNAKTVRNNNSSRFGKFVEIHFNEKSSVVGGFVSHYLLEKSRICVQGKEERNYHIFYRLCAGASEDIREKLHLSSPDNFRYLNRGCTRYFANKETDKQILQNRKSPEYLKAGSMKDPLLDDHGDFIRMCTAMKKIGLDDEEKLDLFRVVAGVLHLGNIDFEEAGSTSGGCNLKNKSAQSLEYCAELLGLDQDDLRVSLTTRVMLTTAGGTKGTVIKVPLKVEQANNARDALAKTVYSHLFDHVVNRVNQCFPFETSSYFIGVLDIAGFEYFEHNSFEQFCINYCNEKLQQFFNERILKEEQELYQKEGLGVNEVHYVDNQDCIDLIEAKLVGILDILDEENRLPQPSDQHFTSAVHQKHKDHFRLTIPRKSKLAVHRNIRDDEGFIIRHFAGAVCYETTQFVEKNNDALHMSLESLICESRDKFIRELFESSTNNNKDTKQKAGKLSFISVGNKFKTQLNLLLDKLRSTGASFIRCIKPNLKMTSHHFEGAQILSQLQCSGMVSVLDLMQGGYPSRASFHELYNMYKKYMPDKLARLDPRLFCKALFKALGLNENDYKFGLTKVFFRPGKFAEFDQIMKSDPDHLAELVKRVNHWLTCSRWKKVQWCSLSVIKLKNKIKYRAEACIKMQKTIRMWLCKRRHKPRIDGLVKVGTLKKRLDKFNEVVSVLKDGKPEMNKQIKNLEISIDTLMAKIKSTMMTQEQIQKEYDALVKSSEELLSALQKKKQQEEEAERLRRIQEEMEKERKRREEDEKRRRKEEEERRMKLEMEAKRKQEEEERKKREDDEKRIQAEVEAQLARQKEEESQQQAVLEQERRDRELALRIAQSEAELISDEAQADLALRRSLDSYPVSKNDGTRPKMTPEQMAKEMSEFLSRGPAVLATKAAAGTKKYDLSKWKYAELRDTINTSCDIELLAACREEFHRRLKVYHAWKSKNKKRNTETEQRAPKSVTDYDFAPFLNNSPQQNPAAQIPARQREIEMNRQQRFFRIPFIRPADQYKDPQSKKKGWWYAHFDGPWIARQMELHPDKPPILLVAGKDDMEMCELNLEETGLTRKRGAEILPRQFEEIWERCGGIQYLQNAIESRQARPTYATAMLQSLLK

[3] = target: B3; experiment: pull-down; GST-CLC proteins (1.5 μM) on glutathione sepharose beads incubated 1 h at 4 °C in JS buffer with cleaved and purified myosin VI fragments; SDS-PAGE, Coomassie; details: both partners purified
[4] = target: T1, myosin VI^998–1131 of the long isoform (myosin VI_(long)), cleaved from GST and purified (human, UniProt Q9UM54 998-1131); experiment: FP
T1 chain: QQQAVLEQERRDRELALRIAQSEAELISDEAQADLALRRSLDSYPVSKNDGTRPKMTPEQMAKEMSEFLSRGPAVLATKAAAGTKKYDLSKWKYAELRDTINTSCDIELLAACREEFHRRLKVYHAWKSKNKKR

myosin VI^1069–1131 = target: T2, myosin VI^1069–1131 (human, UniProt Q9UM54 1069-1131); experiment: FP
T2 chain: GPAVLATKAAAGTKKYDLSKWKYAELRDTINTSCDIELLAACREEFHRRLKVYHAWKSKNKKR

[5] = target: B6; experiment: fluorescence polarisation; 20–50 nM 5-FAM-conjugated CLCa peptide titrated with purified myosin VI fragment from ~150 µM, 22 °C, 384-well plate; details: both partners purified
[6] = target: B3; experiment: as above; details: both partners purified
[7] = target: T3, 5-carboxyfluorescein (5-FAM)-conjugated CLCa peptide 51–61 (human, UniProt P09496 51-61, also: 5-FAM conjugated, site not given here); experiment: as above; details: both partners purified
T3 construct: clathrin light chain A (CLCa), human, amino acids 51–61; source: synthetic peptide (GenScript)
T3 peptide (looked up): AFAILDGGAPG

[8] = target: T4, 5-carboxyfluorescein (5-FAM)-conjugated CLCa peptide 51–66 (human, UniProt P09496 51-66, also: 5-FAM conjugated, site not given here); experiment: as above; details: both partners purified
T4 construct: clathrin light chain A (CLCa), human, amino acids 51–66; source: synthetic peptide (GenScript)
T4 peptide (looked up): AFAILDGGAPGPQPHG

[9] = target: B6; experiment: NMR structure; complex of myosin VI^1050–1131 and CLCa^46–61, 221 intermolecular NOEs; 10 °C, 20 mM NaPO4 pH 6.5, 50 mM NaCl, 2 mM DTT; details: both partners purified
[10] = target: B6; experiment: ITC; 380 µM CLCa WT or I54D titrated into 20 µM Hip1R^346–655 or myosin VI^1050–1131 in the cell; 20 mM Tris-HCl pH 8.0, 150 mM NaCl, 2.5% glycerol, 25 °C; one-set-of-sites model; details: both partners purified
[11] = target: T5, His-Hip1R coiled-coil region (amino acids 346–655) (UniProt O75146 346-655); experiment: as above; details: both partners purified
T5 construct: also called His-Hip1R^346–655; Hip1R^346–655; source: bacterially purified (pRSF-duet)
T5 sequence (looked up): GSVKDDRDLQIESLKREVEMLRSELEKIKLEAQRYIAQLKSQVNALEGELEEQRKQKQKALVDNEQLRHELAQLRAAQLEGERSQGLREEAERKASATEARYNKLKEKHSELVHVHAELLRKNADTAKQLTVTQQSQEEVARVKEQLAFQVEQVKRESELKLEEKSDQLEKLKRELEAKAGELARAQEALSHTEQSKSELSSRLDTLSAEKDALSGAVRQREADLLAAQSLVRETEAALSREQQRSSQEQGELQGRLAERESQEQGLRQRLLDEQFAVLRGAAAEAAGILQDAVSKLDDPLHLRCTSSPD

[12] = target: B5; experiment: as above; details: both partners purified

“myosin VI^998–1131 of the short isoform (myosin VI_(short)), cleaved from GST and purified (domain or fragment)” was tested, and the Kd [1] was 96000 nM.

“myosin VI Y1121A mutant used for FP analysis (domain or fragment)” was tested, and the difference in binding affinity against the wild type [1] was 2 log-fold.

In the case of GST-CLCa 46–61 WT I54D, the response [2] is reported as 3 % of binding.

B1: GST-CLCa fragment of amino acids 47–97 (domain or fragment, human, UniProt P09496 47-97, looked up)
chain: ENDEAFAILDGGAPGPQPHGEPPGGPDAVDGVMNGEYYQESNGPTDSYAAI
notes: clathrin light chain A (CLCa), human, amino acids 47–97; also called CLCa 47–97; source: E. coli Rosetta (DE3), on glutathione-sepharose beads
B1: binds [3].

AFAILDGGAPGPQPHG (also: 5-FAM conjugated, site not given here) [5-carboxyfluorescein (5-FAM)-conjugated CLCa peptide 51–66] was tested, and the Kd [4] was 13100 nM.

B2: 5-carboxyfluorescein (5-FAM)-conjugated CLCa peptide 46–61 (peptide, UniProt P09496 46-61, looked up)
peptide: 5FAM-IENDEAFAILDGGAPG
notes: clathrin light chain A (CLCa), human, amino acids 46–61; also called CLCa^46–61; source: synthetic peptide (GenScript)
Work on B2 yielded a Kd (myosin VI^1069–1131) of 22000 nM, a Kd [5] of 400 nM and a Kd [6] of 930 nM.

AFAILDGGAPG (also: 5-FAM conjugated, site not given here) [5-carboxyfluorescein (5-FAM)-conjugated CLCa peptide 51–61] showed a Kd [4] of 22600 nM.

For B3, the “fold higher affinity of peptide 46–61 than of this peptide” value [7] was 10 fold and the “fold higher affinity of peptide 46–61 than of this peptide” value [8] was 10 fold.

B4: CLCa^46–61, recombinant, cleaved from GST (for the NMR structure) (peptide, UniProt P09496 46-61, looked up)
peptide: IENDEAFAILDGGAPG
notes: clathrin light chain A (CLCa), human, amino acids 46–61; 13C,15N-labelled in one of the two samples; source: E. coli BL21 (DE3), GST fusion cleaved with PreScission Protease in the presence of myosin VI, purified (SEC)
B4: binds [9].

In the case of B5, the dH [10] is reported as -11.6 kcal/mol, the “stoichiometry N” value [10] is reported as 0.79 sites and the Kd [11] is reported as 1370 nM. For the same molecule, the dH [11] was -9.7 kcal/mol and the “stoichiometry N” value [11] was 1.15 sites.

With B6 the Kd [12] was 90 nM.

B7: CLCa I54D full length (ITC) (natural protein, human, UniProt P09496 1-248, looked up)
chain: MAELDPFGAPAGAPGGPALGNGVAGAGEEDPAAAFLAQQESEIAGIENDEAFADLDGGAPGPQPHGEPPGGPDAVDGVMNGEYYQESNGPTDSYAAISQVDRLQSEPESIRKWREEQMERLEALDANSRKQEAEWKEKAIKELEEWYARQDEQLQKTKANNRVADEAFYKQPFADVIGYVTNINHPCYSLEQAAEEAFVNDIDESSPGTEWERVARLCDFNPKSSKQAKDVSRMRSVLISLKQAPLVH
notes: clathrin light chain A (CLCa), human, I54D
For B7, the Kd [11] was 990 nM, the dH [11] was -8.72 kcal/mol and the “stoichiometry N” value [11] was 1.01 sites.

From PMC6823378, “Clathrin light chain A drives selective myosin VI recruitment to clathrin-coated pits under membrane tension” (Nature Communications, 2019)
